Numbered stars: 1 amine (or outer) side, 2 acyl side, 3 side chain; on linkers, the order of the positions; unused ones are H or OH. Square brackets hold non-standard residues; d marks the D form. Side chains are listed from the residue outwards. * marks the point of attachment. TTDS = 4-[3-[2-[2-(3-aminopropoxy)ethoxy]ethoxy]propylamino]-4-oxo-butanoyl; γGlu = O=C(O)[C@H](CCC(=O)[*:2])N[*:1]; Stearoyl = CCCCCCCCCCCCCCCCCC(=O)*; Palmitoyl = CCCCCCCCCCCCCCCC(=O)*; Cit = NC(=O)NCCC[C@H](N)C(=O)O; αMeK = C[C@](N)(CCCCN)C(=O)O; hLys = NCCCCC[C@H](N)C(=O)O; AEEA = NCCOCCOCC(=O)O; Aib = CC(C)(N)C(=O)O

Consider 20 molecules from patent US20240400638A1, “COMBINATION OF RELAXIN AND VASOPRESSIN ANALOGUES FOR TREATMENT OF RENAL DISORDERS OR CONDITIONS” (River 2 Renal Corp., priority 2021, published 2024).

In assay [1] the target is T1, human RXFP1 (human, UniProt Q9HBX9 1-757).
T1 sequence (looked up): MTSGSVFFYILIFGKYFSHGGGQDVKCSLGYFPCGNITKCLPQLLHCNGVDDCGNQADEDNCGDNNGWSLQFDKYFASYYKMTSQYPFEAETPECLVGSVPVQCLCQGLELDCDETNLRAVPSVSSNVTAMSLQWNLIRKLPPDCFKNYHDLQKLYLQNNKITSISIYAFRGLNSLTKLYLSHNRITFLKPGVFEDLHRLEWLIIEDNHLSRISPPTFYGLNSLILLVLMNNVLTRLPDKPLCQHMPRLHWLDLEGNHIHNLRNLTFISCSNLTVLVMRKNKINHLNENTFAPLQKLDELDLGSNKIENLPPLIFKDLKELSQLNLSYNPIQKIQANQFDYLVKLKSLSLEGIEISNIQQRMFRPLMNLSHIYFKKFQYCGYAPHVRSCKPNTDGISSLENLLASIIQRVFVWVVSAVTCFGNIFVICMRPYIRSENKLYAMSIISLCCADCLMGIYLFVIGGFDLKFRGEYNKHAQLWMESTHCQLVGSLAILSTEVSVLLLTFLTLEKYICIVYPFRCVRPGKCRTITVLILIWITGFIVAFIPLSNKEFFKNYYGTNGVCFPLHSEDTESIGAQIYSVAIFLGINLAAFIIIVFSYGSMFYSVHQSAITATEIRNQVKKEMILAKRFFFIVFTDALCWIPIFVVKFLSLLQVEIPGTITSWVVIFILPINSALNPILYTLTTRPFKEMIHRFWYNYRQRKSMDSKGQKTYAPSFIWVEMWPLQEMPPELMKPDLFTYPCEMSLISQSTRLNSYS
Description: cell-based or functional assay.

Assay [2] addresses T1, human RXFP1. The assay is described as follows: cell-based or functional assay. The source holds these as a separate data set.

Consider Ac-LEGREKVRAK(Ac)I[Aib][Aib]EGK([TTDS-TTDS-TTDS-γGlu-γGlu-γGlu-Palmitoyl])STFS[αMeK]RAK-NH2 [Relaxin peptide analogue of SEQ ID NO: 49], for which, in the assay with human RXFP1 [1], the “EC50 (nM), OVCAR 5 cells (cAMP)” value was 0.19 nM and the “EMax, OVCAR 5 cells (cAMP)” value was 97%.
Ac-LEGREFVRAK(Ac)I[Aib][Aib]EGK([TTDS-TTDS-TTDS-γGlu-γGlu-γGlu-Palmitoyl])STWS[Aib]RRK(Ac)-NH2 [Relaxin peptide analogue of SEQ ID NO: 39]: in the assay with human RXFP1 [1], the “EC50 (nM), OVCAR 5 cells (cAMP)” value worked out at 8.7 nM and the “EMax, OVCAR 5 cells (cAMP)” value amounted to 93%.

B1: Relaxin peptide analogue of SEQ ID NO: 45 (peptide)
peptide: Ac-LEGREKVRAK(Ac)I[Aib][Aib]EGK([AEEA-AEEA-AEEA-AEEA-AEEA-γGlu-γGlu-γGlu-Palmitoyl])STFS[αMeK]RAK(Ac)-NH2
SMILES: CCCCCCCCCCCCCCCC(=O)N[C@@H](CCC(=O)N[C@@H](CCC(=O)N[C@@H](CCC(=O)NCCOCCOCC(=O)NCCOCCOCC(=O)NCCOCCOCC(=O)NCCOCCOCC(=O)NCCOCCOCC(=O)NCCCC[C@H](NC(=O)CNC(=O)[C@H](CCC(=O)O)NC(=O)C(C)(C)NC(=O)C(C)(C)NC(=O)[C@@H](NC(=O)[C@H](CCCCNC(C)=O)NC(=O)[C@H](C)NC(=O)[C@H](CCCNC(=N)N)NC(=O)[C@@H](NC(=O)[C@H](CCCCN)NC(=O)[C@H](CCC(=O)O)NC(=O)[C@H](CCCNC(=N)N)NC(=O)CNC(=O)[C@H](CCC(=O)O)NC(=O)[C@H](CC(C)C)NC(C)=O)C(C)C)[C@@H](C)CC)C(=O)N[C@@H](CO)C(=O)N[C@H](C(=O)N[C@@H](Cc1ccccc1)C(=O)N[C@@H](CO)C(=O)N[C@@](C)(CCCCN)C(=O)N[C@@H](CCCNC(=N)N)C(=O)N[C@@H](C)C(=O)N[C@@H](CCCCNC(C)=O)C(N)=O)[C@@H](C)O)C(=O)O)C(=O)O)C(=O)O
As for B1, in the assay with human RXFP1 [1], the “EC50 (nM), OVCAR 5 cells (cAMP)” value was 0.45 nM and the “EMax, OVCAR 5 cells (cAMP)” value was determined as 96%.
As for Ac-LEGREKVRAK(Ac)I[Aib][Aib]EGK([TTDS-TTDS-γGlu-γGlu-γGlu-Palmitoyl])STWS[Aib]RKK(Ac)-NH2 [Relaxin peptide analogue of SEQ ID NO: 4], in the assay with human RXFP1 [1], the “EC50 (nM), OVCAR 5 cells (cAMP)” value came to 1.5 nM and the “EMax, OVCAR 5 cells (cAMP)” value was found to be 89%.

B2: Relaxin peptide analogue of SEQ ID NO: 42 (peptide)
peptide: Ac-LEGREKVRAK(Ac)I[Aib][Aib]EGK([AEEA-AEEA-AEEA-AEEA-γGlu-γGlu-γGlu-Palmitoyl])STWS[αMeK]RAK(Ac)-NH2
SMILES: CCCCCCCCCCCCCCCC(=O)N[C@@H](CCC(=O)N[C@@H](CCC(=O)N[C@@H](CCC(=O)NCCOCCOCC(=O)NCCOCCOCC(=O)NCCOCCOCC(=O)NCCOCCOCC(=O)NCCCC[C@H](NC(=O)CNC(=O)[C@H](CCC(=O)O)NC(=O)C(C)(C)NC(=O)C(C)(C)NC(=O)[C@@H](NC(=O)[C@H](CCCCNC(C)=O)NC(=O)[C@H](C)NC(=O)[C@H](CCCNC(=N)N)NC(=O)[C@@H](NC(=O)[C@H](CCCCN)NC(=O)[C@H](CCC(=O)O)NC(=O)[C@H](CCCNC(=N)N)NC(=O)CNC(=O)[C@H](CCC(=O)O)NC(=O)[C@H](CC(C)C)NC(C)=O)C(C)C)[C@@H](C)CC)C(=O)N[C@@H](CO)C(=O)N[C@H](C(=O)N[C@@H](Cc1c[nH]c2ccccc12)C(=O)N[C@@H](CO)C(=O)N[C@@](C)(CCCCN)C(=O)N[C@@H](CCCNC(=N)N)C(=O)N[C@@H](C)C(=O)N[C@@H](CCCCNC(C)=O)C(N)=O)[C@@H](C)O)C(=O)O)C(=O)O)C(=O)O
Take B2: in the assay with human RXFP1 [1], the “EC50 (nM), OVCAR 5 cells (cAMP)” value stood at 1.5 nM and the “EMax, OVCAR 5 cells (cAMP)” value turned out to be 84%.
The like results for Ac-LEGRELVRAK(Ac)I[Aib][Aib]EGK([TTDS-TTDS-TTDS-γGlu-γGlu-γGlu-Palmitoyl])STWS[Aib]RRK(Ac)-NH2 [Relaxin peptide analogue of SEQ ID NO: 37] were, in that order, 5.6 nM and 98%.
Regarding Ac-LEGREKVRAK(Ac)I[Aib][Aib]EGK([TTDS-TTDS-TTDS-γGlu-γGlu-γGlu-Palmitoyl])STW[Aib]KRAK(Ac)-NH2 [Relaxin peptide analogue of SEQ ID NO: 35], in the assay with human RXFP1 [1], the “EC50 (nM), OVCAR 5 cells (cAMP)” value came out at 2.33 nM and the “EMax, OVCAR 5 cells (cAMP)” value is 91%.
On the same counts, the results for Ac-LEGREKVRAK(Ac)I[Aib][Aib]EGK([TTDS-TTDS-γGlu-γGlu-γGlu-γGlu-Stearoyl])STWS[Aib]RKK(Ac)-NH2 [Relaxin peptide analogue of SEQ ID NO: 54] are 0.16 nM and 96%.
On the same counts, the results for Ac-LEGREKVRAK(Ac)I[Aib][Aib]EGK([TTDS-TTDS-TTDS-γGlu-γGlu-γGlu-Palmitoyl])STWS[hLys]RAK(Ac)-NH2 [Relaxin peptide analogue of SEQ ID NO: 57] are 0.44 nM and 98%.
On the same counts, the results for Ac-LEGREKVRAK(Ac)I[Aib][Aib]EGK([TTDS-TTDS-TTDS-γGlu-γGlu-γGlu-Palmitoyl])STW[dS]KRAK(Ac)-NH2 [Relaxin peptide analogue of SEQ ID NO: 44] are 2.2 nM and 97%.
In the case of Ac-LEGREKVRAKI[Aib][Aib]EGK([TTDS-TTDS-TTDS-γGlu-γGlu-γGlu-Palmitoyl])STFS[αMeK]RAK(Ac)-NH2 [Relaxin peptide analogue of SEQ ID NO: 47], in the assay with human RXFP1 [1], the “EC50 (nM), OVCAR 5 cells (cAMP)” value was 0.64 nM and the “EMax, OVCAR 5 cells (cAMP)” value came to 95%.
As for H-VIKLSGRELVRAQIAISGMSTWSKRSL-NH2 [B7-33 C11.23S], in the assay with human RXFP1 [2], the “EC50 (nM), cAMP assay in OVCAR 5 cells” value came out at 1640 nM and the “Emax, cAMP assay in OVCAR 5 cells” value is 90%.
Regarding Ac-LEGREKVRAQI[Aib][Aib]EGK([TTDS-TTDS-TTDS-γGlu-γGlu-γGlu-Palmitoyl])STFS[αMeK]RAK(Ac)-NH2 [Relaxin peptide analogue of SEQ ID NO: 48], in the assay with human RXFP1 [1], the “EC50 (nM), OVCAR 5 cells (cAMP)” value stood at 0.45 nM and the “EMax, OVCAR 5 cells (cAMP)” value is 96%.
As for Ac-VIKLSGRELVRAQIAISGMSTWSKRSL-NH2 [AcB7-33 C11.23S], in the assay with human RXFP1 [2], the “EC50 (nM), cAMP assay in OVCAR 5 cells” value was determined as 929 nM and the “Emax, cAMP assay in OVCAR 5 cells” value is 70%.
Take Ac-LEGREKVRAK(Ac)I[Aib][Aib]EGK([TTDS-TTDS-TTDS-γGlu-γGlu-γGlu-Palmitoyl])STFS[dK]RAK(Ac)-NH2 [Relaxin peptide analogue of SEQ ID NO: 36]: in the assay with human RXFP1 [1], the “EC50 (nM), OVCAR 5 cells (cAMP)” value worked out at 3.6 nM and the “EMax, OVCAR 5 cells (cAMP)” value turned out to be 93%.
On the same counts, the results for Ac-LEGREKVRAK(Ac)I[Aib][Aib]EGK([TTDS-TTDS-TTDS-TTDS-γGlu-γGlu-γGlu-Stearoyl])STWS[Aib]RKK(Ac)-NH2 [Relaxin peptide analogue of SEQ ID NO: 58] are 0.08 nM and 98%.
Ac-LEGREKVRAK(Ac)I[Aib][Aib]EGK([TTDS-TTDS-γGlu-γGlu-γGlu-Stearoyl])STFS[αMeK]RAK(Ac)-NH2 [Relaxin peptide analogue of SEQ ID NO: 34]: in the assay with human RXFP1 [1], the “EC50 (nM), OVCAR 5 cells (cAMP)” value amounted to 0.14 nM and the “EMax, OVCAR 5 cells (cAMP)” value is 90%.
Take Ac-LEGREKVRA[Cit]I[Aib][Aib]EGK([TTDS-TTDS-TTDS-γGlu-γGlu-γGlu-Stearoyl])STFS[αMeK]RAK(Ac)-NH2 [Relaxin peptide analogue of SEQ ID NO: 56]: in the assay with human RXFP1 [1], the “EC50 (nM), OVCAR 5 cells (cAMP)” value is 0.15 nM and the “EMax, OVCAR 5 cells (cAMP)” value was determined as 91%.
On the same counts, the results for Ac-LEGREKVRAK(Ac)I[Aib][Aib]EGK([TTDS-TTDS-TTDS-γGlu-γGlu-γGlu-γGlu-Stearoyl])STWS[Aib]RKK(Ac)-NH2 [Relaxin peptide analogue of SEQ ID NO: 51] are 0.1 nM and 98%.
Take Ac-VIKLSGRELVRAQIAISGMSTWSKKKK-NH2 [KKKK(AcB7-29 C11.23S)]: in the assay with human RXFP1 [2], the “EC50 (nM), cAMP assay in OVCAR 5 cells” value stood at 206 nM and the “Emax, cAMP assay in OVCAR 5 cells” value turned out to be 84%.
